B1: Kinesin-like protein KIF2C (Homo sapiens), Q99661 (parent)
chain: MAMDSSLQARLFPGLAIKIQRSNGLIHSANVRTVNLEKSCVSVEWAEGGATKGKEIDFDDVAAINPELLQLLPLHPKDNLPLQENVTIQKQKRRSVNSKIPAPKESLRSRSTRMSTVSELRITAQENDMEVELPAAANSRKQFSVPPAPTRPSCPAVAEIPLRMVSEEMEEQVHSIRGSSSANPVNSVRRKSCLVKEVEKMKNKREEKKAQNSEMRMKRAQEYDSSFPNWEFARMIKEFRATLECHPLTMTDPIEEHRICVCVRKRPLNKQELAKKEIDVISIPSKCLLLVHEPKLKVDLTKYLENQAFCFDFAFDETASNEVVYRFTARPLVQTIFEGGKATCFAYGQTGSGKTHTMGGDLSGKAQNASKGIYAMASRDVFLLKNQPCYRKLGLEVYVTFFEIYNGKLFDLLNKKAKLRVLEDGKQQVQVVGLQEHLVNSADDVIKMIDMGSACRTSGQTFANSNSSRSHACFQIILRAKGRMHGKFSLVDLAGNERGADTSSADRQTRMEGAEINKSLLALKECIRALGQNKAHTPFRESKLTQVLRDSFIGENSRTCMIATISPGISSCEYTLNTLRYADRVKELSPHSGPSGEQLIQMETEEMEACSNGALIPGNLSKEEEELSSQMSSFNEAMTQIRELEEKAMEELKEIIQQGPDWLELSEMTEQPDYDLETFVNKAESALAQQAKHFSALRDVIKALRLAMQLEEQASRQISSKKRPQ

Variants of: B1
Details: with mare1_human MAPRE1, Q15691
Sequence of mare1_human MAPRE1, Q15691 (Q15691 whole entry): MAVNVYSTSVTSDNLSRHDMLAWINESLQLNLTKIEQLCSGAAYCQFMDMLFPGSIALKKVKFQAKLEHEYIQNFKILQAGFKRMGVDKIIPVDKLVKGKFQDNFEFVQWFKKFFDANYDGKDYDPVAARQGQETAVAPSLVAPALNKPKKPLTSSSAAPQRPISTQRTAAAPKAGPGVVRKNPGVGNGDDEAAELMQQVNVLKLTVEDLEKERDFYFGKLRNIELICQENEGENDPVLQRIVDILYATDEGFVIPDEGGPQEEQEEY

Variant | effect of a mutation on the interaction
I100N;P101N | decreasing interaction

— IntAct's records for PubMed 19632184
